In one data set the target is Shank1CΔPEST. Kind of data set: co-sedimentation.
For another data set, the target named is Homer1b (rat). As to the kind of experiment: AUC.
For data set [1], the target named is Homer1b I332R/I337E (rat). Kind of data set: AUC.
Another data set addresses Homer1bΔ329 (rat). As to the kind of experiment: AUC.
The data set “crystal structure” deals with the molecule itself. Kind of data set: crystal structure.

A word on the stoichiometry N: it is a count of units in the complex or per binding partner. Turning to Homer1b (natural protein), in the data set with Shank1CΔPEST, the percent precipitated was 50% and the stoichiometry N (Homer:Shank molar ratio) is 1. This molecule yielded a stoichiometry N with Homer1b (rat) of 4.2 mer.

For Homer1b I332R/I337E (natural protein), the stoichiometry N in data set [1] worked out at 2 mer. In the data set with Homer1bΔ329 (rat), Homer1bΔ329 (domain or fragment) gave a stoichiometry N of 2.1 mer.

B1: Homer3CC2 (287 – carboxy-terminus of Homer3a) (domain or fragment, human, UniProt Q9NSC5 287-361, looked up)
chain: AAEREETQQKVQDLETRNAELEHQLRAMERSLEEARAERERARAEVGRAAQLLDVSLFELSELREGLARLAEAAP
B1: the binding result in “crystal structure” was “binds”.

(Values after paper PMC2680917 (Cell, 2009).)
